Data on twelve molecules can be found in patent US20030181408A1, “Genes essential for microbial proliferation and antisense thereto” (priority 1999, published 2003).

In brackets after ≈: the same amount, converted by molar mass. Where a SMILES comes first, the peptide text is derived from it. Bridges are numbered along the chain shown (N, C = ends). [ ]: non-standard residue; d: D form. The star is where a group is joined. Ileψ(thiazoline)Cys = CC[C@H](C)[C@H](N)C1=N[C@H](C(=O)*)CS1; dOrn = NCCC[C@@H](N)C(=O)O

The test system of data set [1] is bacterial strain engineered for expression of an antisense against rplL and rplJ (50S ribosomal subunit proteins). Put plainly: microbe, parasite or virus in culture. The class given is cell-based, E. coli. The conditions noted are these: read-out: IC50 (+I). The protocol: Antibiotics of various chemical classes and modes of action were purchased from Sigma Chemicals (St. Louis, Mo.). Stock solutions were prepared by dissolving each antibiotic in an appropriate aqueous solution based on information provided by the manufacturer. The final working solution of each antibiotic contained no more than 0.2% (w/v) of any organic solvent. To determine their potency against a bacterial strain engineered for expression of an antisense against a proliferation-required gene encoding 50S ribosomal protein, each antibiotic was serially diluted two or three fold in growth medium supplemented with the appropriate antibiotic for maintenance of the anti-sense construct. At least ten dilutions were prepared for each antibiotic. 25 μL aliquots of each dilution were transferred to discrete wells of a 384-well microplate (the assay plate) using a multi-channel pipette. Quadruplicate wells were used for each dilution of an antibiotic under each treatment condition (plus and minus inducer). Each assay plate contained twenty wells for cell growth controls (growth media replacing antibiotic), ten wells for each treatment (plus and minus inducer, in this example IPTG). Assay plates were usually divided into the two treatments: half the plate containing induced cells and an appropriate concentrations of inducer (in this example IPTG) to maintain the state of induction, the other half containing non-induced cells in the absence of IPTG.
Cells for the assay were prepared as follows. Bacterial cells containing a construct, from which expression of antisense nucleic acid against rplL and rplJ, which encode proliferation-required 50S ribosomal subunit proteins, is inducible in the presence of IPTG, were grown into exponential growth (OD600 0.2 to 0.3) and then diluted 1:100 into fresh media containing either 400 μM or 0 μM inducer (IPTG). These cultures were incubated at 37° C. for 2.5 hr. After a 2.5 hr incubation, induced and non-induced cells were respectively diluted into an assay medium at a final OD600 value of 0.0004. The medium contained an appropriate concentration of the antibiotic for the maintenance of the anti-sense construct. In addition, the medium used to dilute induced cells was supplemented with 800 μM IPTG so that addition to the assay plate would result in a final IPTG concentration of 400 μM. Induced and non-induced cell suspensions were dispensed (25 μl/well) into the appropriate wells of the assay plate as discussed previously. The plate was then loaded into a plate reader, incubated at constant temperature, and cell growth was monitored in each well by the measurement of light scattering at 595 nm. Growth was monitored every 5 minutes until the cell culture attained a stationary growth phase. For each concentration of antibiotic, a percentage inhibition of growth was calculated at the time point corresponding to mid-exponential growth for the associated control wells (no antibiotic, plus or minus IPTG). For each antibiotic and condition (plus or minus IPTG), a plot of percent inhibition versus log of antibiotic concentration was generated and the IC50 determined.

The test system of another data set is E. coli. The experiment in a line: Inhibition of E. coli proliferation after IPTG induction of antisense clones (liquid growth curves, dilution spotting on plates). The class given is cell-based, Escherichia coli. The conditions noted are these: for effect of antisense expression on E. coli growth after IPTG induction: 1 mM IPTG. The protocol: (§1) To study the effects of transcriptional induction in liquid medium, growth curves were carried out by back diluting cultures 1:200 into fresh media with or without 1 mM IPTG and measuring the OD450 every 30 minutes (min). To study the effects of transcriptional induction on solid medium, 10^2, 10^3, 10^4, 10^5, 10^6, 10^7 and 10^8 fold dilutions of overnight cultures were prepared. Aliquots of from 0.5 to 3 μl of these dilutions were spotted on selective agar plates with or without 1 mM IPTG. After overnight incubation, the plates were compared to assess the sensitivity of the clones to IPTG.
(§2) Molecule No. EcXA059, encoding a portion of the ypjA gene of Escherichia coli, was either transformed directly into Enterobacter cloacae, Salmonella typhimurium and/or Klebsiella pneumoniae or subdloned into an expression vector functional in these species and the subclones transformed into these organisms. Suitable expression vectors are well known in the art. These expression vectors were introduced into Enterobacter cloacae, Salmonella typhimurium and/or Klebsiella pneumoniae cells that were then assayed for growth inhibition according to the method of Example 1. After growth in liquid culture, cells were plated at various serial dilutions and a score determined by calculating the log difference in growth for INDUCED vs. UNINDUCED antisense RNA expression as determined by the maximum 10 fold dilution at which a colony was observed. If there was no effect of antisense RNA expression in one organism, the clone is given a score of zero “0” in that organism. In contrast, a score of “8” means that 10^8 times more cells were required to observe a colony formed on the induced state than in the non-induced state under the conditions used and in that organism.

The test system of another data set is Enterobacter cloacae. Put plainly: Growth inhibition by IPTG-induced antisense RNA expression in Enterobacter cloacae (induced vs. uninduced serial dilution plating). Type of data set: cell-based. The protocol:
as §1, §2
(§3) Expression vectors which inhibited growth of E. coli upon induction of antisense RNA expression with IPTG were transformed directly into Enterobacter cloacae, Klebsiella pneumonia or Salmonella typhimurium. The transformed cells were then assayed for growth inhibition according to the method of Example 1. After growth in liquid culture, cells were plated at various serial dilutions and a score determined by calculating the log difference in growth for INDUCED vs. UNINDUCED antisense RNA expression as determined by the maximum 10 fold dilution at which a colony was observed. If there was no effect of antisense RNA expression in a microorganism, the clone is minus in Table V below. In contrast, a positive in Table V below means that at least 10 fold more cells were required to observe a colony on the induced plate than on the non-induced plate under the conditions used and in that microorganism.

A further data set concerns Klebsiella pneumoniae. Put plainly: Growth inhibition by IPTG-induced antisense RNA expression in Klebsiella pneumoniae (induced vs. uninduced serial dilution plating). Type of data set: cell-based. How it is done: as §1, §2, §3
For a further data set, the system named is Salmonella typhimurium. Put plainly: Growth inhibition by IPTG-induced antisense RNA expression in Salmonella typhimurium (induced vs. uninduced serial dilution plating). Type of data set: cell-based. How it is done: as §1, §2, §3

The IC50 is the concentration at which inhibition is half-maximal. In the case of `CN[C@@H]1[C@H](O)[C@H](NC)[C@H]2O[C@@]3(O)C(=O)C[C@@H](C)O[C@H]3O[C@@H]2[C@H]1O` [Spectinomycin], in data set [1], the half-inhibitory concentration (IC50) was less than 0.15 µg/mL.

Turning to `CN(C)c1ccc(O)c2c1C[C@H]1C[C@H]3[C@H](N(C)C)C(O)=C(C(N)=O)C(=O)[C@@]3(O)C(O)=C1C2=O` [Minocycline], the IC50 in data set [1] was determined as 0.00389 µg/mL (≈ 0.0085 µM).

With `NC[C@H]1O[C@H](O[C@H]2[C@H](O)[C@@H](O[C@H]3O[C@H](CO)[C@@H](O)[C@H](N)[C@H]3O)[C@H](N)C[C@@H]2N)[C@H](N)C[C@@H]1O` [Tobramycin], the IC50 in data set [1] turned out to be 0.0705 µg/mL (≈ 0.151 µM).

In the case of `O=C(N[C@H](CO)[C@H](O)c1ccc([N+](=O)[O-])cc1)C(Cl)Cl` [Chloramphenicol], in data set [1], the IC50 was determined as 0.00151 µg/mL (≈ 0.00467 µM).

Take `CCn1cc(C(=O)O)c(=O)c2ccc(C)nc21` [Nalidixic acid]: the IC50 in data set [1] amounted to 6.02 µg/mL (≈ 25.9 µM).

Turning to `CC[C@H](C)[C@H](N)C1=N[C@H](C(=O)N[C@@H](CC(C)C)C(=O)N[C@H](CCC(=O)O)C(=O)N[C@H](C(=O)N[C@H]2CCCCNC(=O)[C@H](CC(N)=O)NC(=O)[C@@H](CC(=O)O)NC(=O)[C@H](Cc3cnc[nH]3)NC(=O)[C@@H](Cc3ccccc3)NC(=O)[C@H]([C@@H](C)CC)NC(=O)[C@@H](CCCN)NC2=O)[C@@H](C)CC)CS1` [Bacitracin] ({Ileψ(thiazoline)Cys}-L[dE]IK[dOrn]I[dF]H[dD]N; lactam 4-C), in data set [1], the 50% inhibitory concentration (IC50) worked out at 4670 µg/mL (≈ 3280 µM).

Take `CO/N=C(\C(=O)N[C@@H]1C(=O)N2C(C(=O)O)=C(COC(C)=O)CS[C@H]12)c1csc(N)n1` [Cefotaxime]: in data set [1], the IC50 came to 0.0241 µg/mL (≈ 0.0529 µM).

B1: EcXA104: antisense clone insert, E. coli gene hsdS (nucleic acid, listed as Escherichia coli)
DNA: GACGCGGCGAACGATTTCGGCTTGTTCTTTTACTGGAGGTAATAAAACAACTTGGGATTTGATATCTTTTCCTGAAATACCTTTTTGACCAGAAGTTGTTTTCACGCAGTTCATCATTGCATTTCGTGCTGAGGGGGATGAAAAAAATATTTCGATATATTCTGGTAAAGCATCTTT
For the molecule B1, in the data set with E. coli, the “effect of antisense expression on E. coli growth after IPTG induction” value (shortened to “effect of antisense expression”) is listed as “reduction in cell growth”.

B2: EcXA072: antisense clone insert, E. coli gene recJ (nucleic acid, listed as Escherichia coli)
DNA: GATTTTTACCGGATTAATTTTAAACATGGTCTGATTTCTTTTATTGAGCTAGTCAAAATGCGGTGATAAGAGCGGGATTGTCCCAATCCACGCTCTTTTTTATAGAGAAGATGACGCTAAATTGGCCAGATATTGTCGATGATAATTTG
For the molecule B2, the “effect of antisense expression” value with E. coli is given as “reduction in cell growth”. For the same molecule, in the data set on Enterobacter cloacae, the “Sensitivity of E. cloacae to antisense nucleic acid (growth inhibition, induced vs. uninduced)” value is given as “−”.

B3: EcXA082: antisense clone insert, E. coli genes hybC; hybB (nucleic acid, listed as Escherichia coli)
DNA: TGCTTTGCTCGCCTCATGACGATTATGATCGTTTTGTTTTAAAGGAGGAAGTATCGGCAGTAGACGAATGAGTACGATGTAAGCGCAAATCTCAATAGCCACAAAACCAATAGAAATCAACAGTTCTTCCCAGGTCGGGAAGTA
B3: in the data set with E. coli, the “effect of antisense expression” value was “reduction in cell growth”. Moreover, the “Sensitivity of K. pneumoniae to antisense nucleic acid (growth inhibition, induced vs. uninduced)” value in the data set on Klebsiella pneumoniae was “−”. Further, the “Sensitivity of S. typhimurium to antisense nucleic acid (growth inhibition, induced vs. uninduced)” value in the data set with Salmonella typhimurium was “−”.

B4: EcXA069: antisense clone insert, E. coli genes RplD; rplC (nucleic acid, listed as Escherichia coli)
DNA: TGAAATNCGACCGAAGGTAGTTTCGGAAACAGTCAGCGCGCTCTGCGCGTCTTTCAATACTAATTCCATTGCTATCTCCTTACGCCTTCACAGCTGGTTTAACGATCAGGTCGCTACCGGTTGCACCCGGGACAGCACCTTTAACCAGCAGCAGGT
modifications: misc_feature (1)...(156): n = A,T,C or G
notes: antisense clone insert, E. coli genes RplD; rplC
For B4, the “Sensitivity of K. pneumoniae to antisense nucleic acid (growth inhibition, induced vs. uninduced)” value with Klebsiella pneumoniae is reported as “−”. Further, in the data set on Enterobacter cloacae, the “Sensitivity of E. cloacae to antisense nucleic acid (growth inhibition, induced vs. uninduced)” value is given as “+ (a positive in Table V below means that at least 10 fold more cells were required to observe a colony on the induced plate than on the non-induced plate)”. Also, the “Sensitivity of S. typhimurium to antisense nucleic acid (growth inhibition, induced vs. uninduced)” value with Salmonella typhimurium is listed as “−”.

B5: EcXA059: antisense clone insert, portion of the ypjA gene of Escherichia coli (nucleic acid, listed as Escherichia coli)
DNA: NACCANGANTGGGACCCAAATGAAAATTGAACTGAAGATTACAATCAATTTAACANCAAGTTACACAACCAATTCAGACTCCGCCAGCCCACCAATCATGATTGGACGGTGTAAGGACAACACCAACAAAAACAGGAAGTTAGAAGTCTNAGCAAAACACCGACCAGACGGTGAGGAGACATAAAAGGATACGCAAAGGAGCCGCGGCTCCTGGTAACATGAAAGCCCACAGATGTGGGCTTTTTCGTTGATGGTCAGAACGACCAGTTCACACCAGCTACCGCGTTCCACGGGGATTCCACACCGGCACTATGGCTATACCCCACCCCAAGATGCCCGCTTAACGTACTGCTGAATGAGGCTTTAATACCTGCCTGGTATATTCCACGTCTGCCCGACAAATAATTGACGAAATTACCGNCACTATTCACTTTCACCCGGTTATCATCGACAAATTCTTTGCGCACAAGCCGNCTTCAGCCACGGNTCAACTTCCATACCGNTCCCCAGACGCATGTTGTAACTCAACGTTGCGCCCAGTTCACGATATATACTGCGGGTATCGACTGATTTCGATTTCATGCCATTGGATAAATGATATTCGGGGTTATCAGCGGTGAAACCCGTTNACGATGCATACNGGGTCAGGGTTCAATTACCATCGGTAAATCGCATTCCCGGTTTCAATGTGACCGCCAANCCCGTTGCTGTNGGTAACTGGCATTGGCGGGTTCANCGGTGGTAATTTTAACCTGGTACGNTACTTTTAAAACGGGTTAAGCTTTACCGAANACCGTNCANNATTGGAAACCCNCTTTTAATGGTTNCCCAACTNGGNN
modifications: misc_feature (1)...(839): n = A,T,C or G
notes: antisense clone insert, portion of the ypjA gene of Escherichia coli
For B5, the “score: log difference in growth for INDUCED vs. UNINDUCED antisense RNA expression” value in the data set with E. coli (Escherichia coli, IPTG induction, maximum 10 fold dilution at which a colony was observed) was 8.
